Residue numbers refer to the chain shown, from its start.
B1: ADI-14388 (antibody, V domains shown)
VH: EVQLVESGGGVVQPGRSLRLSCAASGFTFSSYPMHWVRQAPGKGLEWVAVISYDGSNKYYADSVKGRFTISRDNSKNTLYLQMNSLRAEDTAVYSCARAQSAAIFDHWGQGTLVTVSS
VL: QAVVTQEPSLTVSPGGTVTLTCASSTGAVTSGYYPNWFQQKPGQAPRALIYTTSKRHSWTPARFSGSLLGGKAALTLSGVQPEDEADYYCLLYYGGANWVFGGGTKLTVL
notes: full-length IgG; also called Ab 55
B2: ADI-19448 (antibody, V domains shown)
VH: EVQLLESGGGLVKPGGSLRLSCAASGFTFSSYSMNWVRQAPGKGLEWVSSISSSSSYIYYADSVKGRFTISRDNAKNSLYLQMNSLRAEDTAVYYCARELLDPGIAAAGFDYWGQGTLVTVSS
VL: QSVLTQPPSVSGAPGQRVTISCTGSSSNIGAGYDVHWYQQLPGTAPKLLIYGNSNRPSGVPDRFSGSKSGTSASLAITGLQAEDEADYYCQSYDSSLSVNYVFGTGTKVTVL
notes: full-length IgG
B3: ADI-19428 (antibody, V domains shown)
VH: EVQLLESGGGLVKPGGSLRLSCAASGFTFSSYSMNWVRQAPGKGLEWVSSISSSSSYIYYADSVKGRFTISRDNAKNSLYLQMNSLRAEDTAVYYCARDSCSGGSCYSPRFDPWGQGTLVTVSS
VL: QSVLTQPPSVSGAPGQRVTISCTGSSSNIGAGYDVHWYQQLPGTAPKLLIYGNSNRPSGVPDRFSGSKSGTSASLAITGLQAEDEADYYCQSYDSTVVFGGGTKLTVL
notes: full-length IgG
B4: ADI-19433 (antibody, V domains shown)
VH: EVQLVESGGGLVKPGGSLRLSCAASGFTFSSYSMNWVRQAPGKGLEWVSSISSSSSYIYYADSVKGRFTISRDNAKNSLYLQMNSLRAEDTAVYYCARAPPSVGGWYFDLWGRGTLVTVSS
VL: B3 VL with S2P, T96S, V97L
notes: full-length IgG
B5: ADI-14391 (antibody, V domains shown)
VH: QVQLVESGGGLVQPGGSLRLSCAAAGFSFSNYAMSWVRQAPGKGLEWVAVISGNAGSTYYAESVKGRFTISRDNSKNTLHLQMNSLRGEDTAVYYCAKPPGIAVAGEYYWYFDLWGRGTLVTVSS
VL: QVQLMQPPSVSVSPGQTARITCSGDALPRENAYWYQQKSGQAPVLVIYEDSKRPSGIPERFSGSSSGTMATLTITGAQVEDEADYYCYSTDTSAYHWVFGGGTKLTVL
notes: full-length IgG; also called Ab 58
B6: ADI-14349 (antibody, V domains shown)
VH: EVQLVESGAEVKKPGSSVKVSCKASGGTLSSYAFSWVRQAPGQGLEWMGGVIPISATSDYAQKFQGRVTITADESTSTVYMELRSLRSEDTAVYYCARDTRYSSGWFYDYWGQGTLVTVSS
VL: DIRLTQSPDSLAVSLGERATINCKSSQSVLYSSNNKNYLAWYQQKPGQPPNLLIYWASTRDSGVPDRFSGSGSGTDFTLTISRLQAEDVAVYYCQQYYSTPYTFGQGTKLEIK
notes: full-length IgG; also called Ab 17
B7: ADI-19488 (antibody, V domains shown)
VH: QVQLVQSGAEVKKPGASVKVSCKVSGYTLTELSMHWVRQAPGKGLEWMGGFDPEDGETIYAQKFQGRVTMTEDTSTDTAYMELSSLRSEDTAVYYCATARFLEWLSGTNWFDPWGQGTLVTVSS
VL: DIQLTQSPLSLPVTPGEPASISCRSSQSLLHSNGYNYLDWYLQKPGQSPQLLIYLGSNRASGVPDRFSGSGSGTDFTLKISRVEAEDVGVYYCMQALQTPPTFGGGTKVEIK
notes: full-length IgG; also called Ab 190
B8: ADI-19494 (antibody, V domains shown)
VH: QVQLVQSGAEVKKPGSSVKVSCKASGGTFSSYVISWVRQAPGQGLEWMGGIIPIFGTTYYAQKFQDRVTITTDESTSTAYMELSSLRSEDTAVYYCARDLRYRYNAYDGADAFDIWGQGTTVTVSS
VL: QSALTQPASVSGSPGQSITISCTGTSSDVGGYNYVSWYQQHPGKAPKLMIFEVSNRPSGVSNRFSGSKSGNTASLTISGLQAEDEADYYCTSYTKSNSVVFGGGTKLTVL
notes: full-length IgG
B9: ADI-19432 (antibody, V domains shown)
VH: QVQLVQSGAEVKKPGASVKVSCKVSGYTLTELSMHWVRQAPGKGLEWMGGFDPEDGETIYAQKFQGRVTMTEDTSTDTAYMELSSLRSEDTAVYYCATEREEGGYSGYDDAFDIWGQGTMVTVSS
VL: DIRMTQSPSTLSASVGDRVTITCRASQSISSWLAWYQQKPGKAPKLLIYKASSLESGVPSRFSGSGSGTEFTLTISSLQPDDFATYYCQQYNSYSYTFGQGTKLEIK
notes: full-length IgG
B10: ADI-14377 (antibody, V domains shown)
VH: EVQLVESGGGVVQPGGSLRLSCAVSGITFSSYGMHWVRQAPGKGLEWVAFIRYDGSNKYYGDSLRGRFTISRDNSKNTLYLQMNSLRAEDTAVYYCAKDAVGIGGYYGLDVWGQGTTVTVSS
VL: DIQMTQSPSSLSASVGDRVTITCRASQGIRNDLGWYQQKPGKAPKRLIYAASSLQSGVPSRFSGSGSGTEFTLTISSLQPEDFATYYCLQHNGYPWTFGQGTKVEIK
notes: full-length IgG; also called Ab 45
B11: ADI-14378 (antibody, V domains shown)
VH: QVQLVESGGGLVQPGGSLRLSCAASGFTFSSYWMHWVRQAPGKGLVWVSRINSDGSSPTYADSVKGRFTISRDNAKNTVFLQMNSLRAEDTAVYYCARESWELIRGDAFDIWGQGTTVTVSS
VL: DIQMTQSPSSLSASVGDRVTITCRASQSISSSLNWYQQKPGKAPNLLIYAASTLQSGVPSRFSGSGSGTDFTLTISSLQPEDFATYYCQQSYRTPRTFGQGTKVEIK
notes: full-length IgG; also called Ab 46
B12: ADI-19487 (antibody, V domains shown)
VH: QVTLKESGPALVKPTQTLTLTCTFSGLSISTSGMCVSWIRQPPGKALEWLARIDWDDDKYYSTSLKTRLTISKDTSKNQVVLTMTNMDPVDTATYYCARINYYDSSGYYVYYFDYWGQGTLVTVSS
VL: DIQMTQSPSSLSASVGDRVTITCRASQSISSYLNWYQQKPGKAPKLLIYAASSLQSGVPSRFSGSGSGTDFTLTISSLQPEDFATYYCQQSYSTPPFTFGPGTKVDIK
B13: ADI-14370 (antibody, V domains shown)
VH: EVQLVESGGGVVQPGKSLRLSCAASGFSFSTFAMHWVRQAPGKGLEWVAVISYDGSNKFYADSVKGRFTISRDSSKNTLYLQMNSLRAEDTAVYYCARGGYSSGWYVTHFDYWGQGTLVTVSS
VL: QSVLTQPPSASGSPGQSVTISCTGTSSDVGGYNYVSWYQQHPGKAPKLMIYEVSKRPSGVPDRFSGSKSGNTASLTVSGLQAEDEADYYCSSYAGSNNLYVFGTGTKLTVL
notes: full-length IgG; also called Ab 38
B14: ADI-14374 (antibody, V domains shown)
VH: QVQLVQSGGVVVQPGGSLRLSCAASGFNFDDFTMHWVRQAPGKGLEWVSLITWDGGITYYADSVKGRFTISRDNGKNSLYLRMNSLRTEDTALYYCAKDGDRYSGYAFLDYWGQGTLVTVSS
VL: SYELTQPPSVSVAPGKTARLTCGGNNIGSESVHWYQQRPGQAPVLVSYYNGDRPSGIAERISASKSGNTATLTIYRVEAGDEADYYCQVWHSSSDHFVFGTGTQLTVL
notes: full-length IgG; also called Ab 42
B15: ADI-43643 (antibody, V domains shown)
VH: QVQLVQSGGGLVKPGGSLRLSCAASGFTFSSYSMNWVRQAPGKGLEWVSSISSSSSYIYYADSVKGRFTISRDNAKNSLYLQMNSLRAEDTAVYYCARVLSGYSYGYDYWGQGTLVTVSS
VL: QSVLTQPPSVSGAPGQRVTISCTGSSSNIGAGYDVHWYQQLPGTAPKLLIYGNSNRPSGVPDRFSGSKSGTSASLAITGLQAEDEADYYCQSYDSSLSGSVFGTGTKVTVL

Target: T1, RSV postfusion F (postF), subtype A (respiratory syncytial virus subtype A, UniProt P03420 26-513)
T1 construct: also called Postfusion subtype A; F deltaFP
Experiment: BLI

Q: Does B1 bind?
A: no binding

Q: Does B2 bind?
A: no binding

Q: Does B3 bind?
A: no binding

Q: Does B4 bind?
A: no binding

Q: Does B5 bind?
A: no binding

Q: Does B6 bind?
A: no binding

Q: Does B7 bind?
A: no binding

Q: Does B8 bind?
A: no binding

Q: Does B9 bind?
A: no binding

Q: Does B10 bind?
A: no binding

Target: RSV F on RSV subtype B virus (mKate-RSV B 18537) (respiratory syncytial virus B 18537, UniProt P13843 26-574)
Experiment: cell-based or functional assay

Q: B11 was tested. Which “Neut IC50 subtype B” value did it give?
A: 21.6 µg/mL

Q: How did the “Neut IC50 subtype B” value turn out when B12 was run?
A: 7.96 µg/mL

Q: With B1 as the binder, how does the “Neut IC50 subtype B” value read?
A: 3.07 µg/mL

Q: How did the “Neut IC50 subtype B” value turn out when B5 was run?
A: 22.2 µg/mL

Q: Which “Neut IC50 subtype B” value does the source give for B13 here?
A: 1.38 µg/mL

Q: How did the “Neut IC50 subtype B” value turn out when B14 was run?
A: 0.86 µg/mL

Q: Which “Neut IC50 subtype B” value does the source give for B6 here?
A: 1.84 µg/mL

Q: Which “Neut IC50 subtype B” value does the source give for B7 here?
A: 3.38 µg/mL

Q: Which “Neut IC50 subtype B” value does the source give for B10 here?
A: 2.13 µg/mL

Target: RSV F on RSV subtype A virus (mKate-RSV A2) (respiratory syncytial virus A2, UniProt P03420 26-574)
Experiment: cell-based or functional assay

Q: For B2, which “Neut IC50 subtype A” value is on record?
A: 9.64 µg/mL

Q: How did the “Neut IC50 subtype A” value turn out when B3 was run?
A: 3.25 µg/mL

Q: B4 was tested. Which “Neut IC50 subtype A” value did it give?
A: 1.56 µg/mL

Q: For B8, which “Neut IC50 subtype A” value is on record?
A: 0.86 µg/mL

Q: Which “Neut IC50 subtype A” value does the source give for B9 here?
A: 11 µg/mL

Target: RSV F on RSV-A2 virus (Respiratory Syncytial Virus (RSV-A2), UniProt P03420 26-574)
Experiment: cell-based or functional assay

Q: B15 was tested. Which “Neutralization IC50 (RSV subtype A)” value did it give?
A: > 25 µg/mL

Target: T2, RSV prefusion F (preF), subtype B (respiratory syncytial virus subtype B)
T2 construct: also called Prefusion subtype B
Experiment: BLI, IgG

Q: B11 was tested. Which Kd did it give?
A: 6.1 nM

Q: Which Kd does the source give for B1 here?
A: 5.5 nM

Q: For B2, which Kd is on record?
A: 5.58 nM

Q: For B3, which Kd is on record?
A: 16.7 nM

Q: For B5, which Kd is on record?
A: 5.36 nM

Q: How did the Kd turn out when B13 was run?
A: 4.18 nM

Q: How did the Kd turn out when B14 was run?
A: 2.09 nM

Q: For B6, which Kd is on record?
A: 4.07 nM

Q: How did the Kd turn out when B7 was run?
A: 10.7 nM

Q: With B10 as the binder, how does the Kd read?
A: 5.28 nM

Source: patent US20260258115A1 (MAPP BIOPHARMACEUTICAL, published 2026)
